The values below come from PMC9237740, “SNARE SYP132 mediates divergent traffic of plasma membrane H^+-ATPase AHA1 and antimicrobial PR1 during bacterial pathogenesis” (Plant Physiology, 2022).

This test addresses T1, GFP-fused SYP132 (SYNTAXIN OF PLANTS132) expressed under its native promoter (Arabidopsis thaliana, UniProt Q8VZU2 1-304).
T1 construct: SYNTAXIN OF PLANTS132 (SYP132), Arabidopsis thaliana, At5g08080; also called GFP-SYP132; SYP132p:GFP-SYP132; source: Arabidopsis SYP132p:GFP-SYP132 transgenic line, in leaf lysate
T1 sequence (looked up): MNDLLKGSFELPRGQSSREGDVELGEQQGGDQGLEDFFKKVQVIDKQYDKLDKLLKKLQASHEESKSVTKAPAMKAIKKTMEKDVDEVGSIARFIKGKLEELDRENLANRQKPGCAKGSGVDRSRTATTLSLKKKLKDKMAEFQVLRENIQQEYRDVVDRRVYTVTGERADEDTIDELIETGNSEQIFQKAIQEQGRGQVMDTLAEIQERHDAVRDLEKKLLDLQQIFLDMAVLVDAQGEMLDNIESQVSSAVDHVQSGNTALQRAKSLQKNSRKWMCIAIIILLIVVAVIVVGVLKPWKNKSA
The experiment in a line: co-IP; GFP-Trap agarose beads saturated with GFP-tagged bait from Arabidopsis leaf lysates; plants treated 24 h without or with Pst DC3000 in 10 mM MgCl2; binding buffer PBS pH 7.45, 0.01% Triton X-100, 0.05 mM DTT, 0.01% CHAPS, 1 h at 4°C; washes with additional 150 mM NaCl; bound proteins detected by immunoblot. Particulars: partners not purified. Background: In western blotting, separated proteins are transferred to a membrane and probed.

B1: PM H+-ATPase 1 (AHA1), native (natural protein, UniProt P20649 1-949, looked up)
chain: MSGLEDIKNETVDLEKIPIEEVFQQLKCTREGLTTQEGEDRIVIFGPNKLEEKKESKILKFLGFMWNPLSWVMEAAALMAIALANGDNRPPDWQDFVGIICLLVINSTISFIEENNAGNAAAALMAGLAPKTKVLRDGKWSEQEAAILVPGDIVSIKLGDIIPADARLLEGDPLKVDQSALTGESLPVTKHPGQEVFSGSTCKQGEIEAVVIATGVHTFFGKAAHLVDSTNQVGHFQKVLTSIGNFCICSIAIGIAIEIVVMYPIQHRKYRDGIDNLLVLLIGGIPIAMPTVLSVTMAIGSHRLSQQGAITKRMTAIEEMAGMDVLCSDKTGTLTLNKLSVDKNLVEVFCKGVEKDQVLLFAAMASRVENQDAIDAAMVGMLADPKEARAGIREVHFLPFNPVDKRTALTYIDSDGNWHRVSKGAPEQILDLANARPDLRKKVLSCIDKYAERGLRSLAVARQVVPEKTKESPGGPWEFVGLLPLFDPPRHDSAETIRRALNLGVNVKMITGDQLAIGKETGRRLGMGTNMYPSAALLGTDKDSNIASIPVEELIEKADGFAGVFPEHKYEIVKKLQERKHIVGMTGDGVNDAPALKKADIGIAVADATDAARGASDIVLTEPGLSVIISAVLTSRAIFQRMKNYTIYAVSITIRIVFGFMLIALIWEFDFSAFMVLIIAILNDGTIMTISKDRVKPSPTPDSWKLKEIFATGIVLGGYQAIMSVIFFWAAHKTDFFSDKFGVRSIRDNNDELMGAVYLQVSIISQALIFVTRSRSWSFVERPGALLMIAFVIAQLVATLIAVYADWTFAKVKGIGWGWAGVIWIYSIVTYFPQDILKFAIRYILSGKAWASLFDNRTAFTTKKDYGIGEREAQWAQAQRTLHGLQPKEDVNIFPEKGSYRELSEIAEQAKRRAEIARLRELHTLKGHVESVAKLKGLDIDTAGHHYTV
notes: Plasma membrane H+-ATPase 1 (AHA1), Arabidopsis thaliana, At2g18960; detected with anti-AHA1 antibodies at ~100 kDa; also called AHA1 isoform; plasma membrane H+-ATPase AHA1; source: endogenous, Arabidopsis leaf lysate
For the molecule B1, the “fold change of Co-IP bound/bait after Pst DC3000 infection relative to buffer control” value was roughly 2.5 fold.
